B1: OR4K15 (parent)
chain: GUUAACGGUCAUAGGCCAUGGAAACUAGGAGCACCAUUUCGCUGCCAGUGAAGAAAUGAACAAAGAAAAUCUGGGCCAGGCAGGCAUCAAAAGAAAUAGUCUUGCGCUCAACCAGAAAGUCUGUAAUCAUUUUAAGGGUA

Variants of: B1
Assay: self-cleavage, relative activity (ratio to wild type); higher = more cleavage; in vitro, sequencing; the parent is a self-cleaving ribozyme
Variant A36G A90G has a self-cleavage of 1.54. For A36G A90C, the self-cleavage was 1.15. Work on A36C A126G yielded a self-cleavage of 1.17. Variant A33U A129U has a self-cleavage of 1.42. For A33U A129G, the self-cleavage was 1.03. In the case of U37C A64G, the self-cleavage is reported as 1.54. Work on A36C A135G yielded a self-cleavage of 2.33. In the case of C35A U43A, the self-cleavage is reported as 2.06. For C34A A89G, the self-cleavage was 1.66. In the case of C34A A89U, the self-cleavage is reported as 1.63. Work on U37C A60G yielded a self-cleavage of 0.54. With U38A A55G the self-cleavage was 1. With U37A C61U the self-cleavage was 0.86. With C35U A51G the self-cleavage was 1.06. C35U U38A showed a self-cleavage of 0.41. For U37A, the self-cleavage was 1.27. U37C gave a self-cleavage of 1.27. For U37G, the self-cleavage was 1.62. For A36U A54G, the self-cleavage was 1.02. Work on A36U A54C yielded a self-cleavage of 1.73. Variant A36G U108A has a self-cleavage of 0.01. In the case of A36G U57G, the self-cleavage is reported as 0.68. A36G U57C gave a self-cleavage of 1.27. For A36U A59G, the self-cleavage was 1.26. Work on A36U A59U yielded a self-cleavage of 1.33. For A33U U131C, the self-cleavage was 1.83. With C35A A129G the self-cleavage was 1.27. U37C A86G showed a self-cleavage of 1.47. Work on A36U U70G yielded a self-cleavage of 1.53. A36U A68G gave a self-cleavage of 1.62. Work on C34U A54G yielded a self-cleavage of 1.6. Variant A36U C113U has a self-cleavage of 0.02. For A36G G104A, the self-cleavage was 0.07. Work on U37G U131C yielded a self-cleavage of 1.37. With U37C U70C the self-cleavage was 0.2. For A36C U49C, the self-cleavage was 1.28. U37C A125G showed a self-cleavage of 0.68. In the case of U37G A47G, the self-cleavage is reported as 1.16. For U37C A54G, the self-cleavage was 1.51. Variant A33U A140G has a self-cleavage of 2.18. In the case of A33U A134G, the self-cleavage is reported as 1.2. C34U A64G showed a self-cleavage of 0.98. For A36C U130C, the self-cleavage was 2.1. In the case of A36U U38C, the self-cleavage is reported as 1.51. Variant A33U C34A has a self-cleavage of 1.81. With A36G G106A the self-cleavage was 0.02. U38A A56G gave a self-cleavage of 0.94. With A36U U97A the self-cleavage was 2.69. In the case of A36U U97C, the self-cleavage is reported as 0.37. Variant A36U A126U has a self-cleavage of 1.63. In the case of A36U A126G, the self-cleavage is reported as 0.99. Variant U37C G80A has a self-cleavage of 0.21. C35U A118G gave a self-cleavage of 0.99. With A36G A140G the self-cleavage was 1.31. U37G A52G showed a self-cleavage of 1.48. A36G A118U gave a self-cleavage of 0.73. For A36G A118G, the self-cleavage was 1.47. In the case of A36G A118C, the self-cleavage is reported as 1.46. In the case of U37C A82G, the self-cleavage is reported as 0.69. In the case of U37C C101A, the self-cleavage is reported as 0.22. Variant U37C C101U has a self-cleavage of 0.78. For A33U C76G, the self-cleavage was 0.17. In the case of A36U C107G, the self-cleavage is reported as 0.03. A36U A66U gave a self-cleavage of 1.05. For A33U C81U, the self-cleavage was 0.27. U37C A94U gave a self-cleavage of 1.67. For A33U A126U, the self-cleavage was 1.67. In the case of A33U A126G, the self-cleavage is reported as 1.4. In the case of C35U U108A, the self-cleavage is reported as 0.02. U37G G138A gave a self-cleavage of 1.23. With A33U A116G the self-cleavage was 1.55. For C35A A36U, the self-cleavage was 0.97. C34A A52G showed a self-cleavage of 1.28. Work on A36U G83A yielded a self-cleavage of 1.13. For A36U U43A, the self-cleavage was 1.85. Variant U37C U43G has a self-cleavage of 1.46. For U37C U43C, the self-cleavage was 2.16. In the case of C35U A96G, the self-cleavage is reported as 0.88. U37C A110C gave a self-cleavage of 0.1. With C34A U122C the self-cleavage was 0.77. Variant U37A U72C has a self-cleavage of 0.37. Variant A36U A94G has a self-cleavage of 1.44. Work on A36G G65U yielded a self-cleavage of 1.06. Work on A33U U72C yielded a self-cleavage of 0.3. Variant U37C U100C has a self-cleavage of 1.67. U37C U100A gave a self-cleavage of 0.52. Work on U37C A63G yielded a self-cleavage of 0.79. A36U A69G gave a self-cleavage of 1.56. In the case of U37G A60G, the self-cleavage is reported as 1.48. C35U A95G showed a self-cleavage of 1.74. For U37C U72C, the self-cleavage was 0.26. With U37C U72A the self-cleavage was 0.51. With A36G U43G the self-cleavage was 1.28. Variant C35U U43A has a self-cleavage of 0.61. With C34U A67U the self-cleavage was 1.92. U37C A111G gave a self-cleavage of 0.03. In the case of U37C A111U, the self-cleavage is reported as 0.15. Variant A36G A110G has a self-cleavage of 0.07. With A36G A110C the self-cleavage was 0.39. Work on A36U U124C yielded a self-cleavage of 1.26. Work on C34U U139A yielded a self-cleavage of 1.61. U37C G136U gave a self-cleavage of 1.97. Work on A36G C128A yielded a self-cleavage of 1.16. With A33U G48A the self-cleavage was 1.42. For U37C A92U, the self-cleavage was 1.61. Work on U37G A62G yielded a self-cleavage of 1.44. C34U U43C showed a self-cleavage of 1.48. Work on C34U A111G yielded a self-cleavage of 0.04. Variant A36U C128A has a self-cleavage of 1.18. A36U A98U gave a self-cleavage of 2.42. Variant A36G G136U has a self-cleavage of 1.95. For U37C A114U, the self-cleavage was 0.15. In the case of U37C C61A, the self-cleavage is reported as 0.78. For A36U U100C, the self-cleavage was 2.44. For U37C A69G, the self-cleavage was 1.17. For U37C A135G, the self-cleavage was 0.95. A36U A55G gave a self-cleavage of 1.4. In the case of U37C G74A, the self-cleavage is reported as 0.31. In the case of A33U U103C, the self-cleavage is reported as 0.84. Work on U37C U87A yielded a self-cleavage of 1.49. C34U A69U showed a self-cleavage of 2.37. Work on C34U A110G yielded a self-cleavage of 0.19. U37C G41U showed a self-cleavage of 1.04. Variant A36G U132A has a self-cleavage of 1.41. A36G U132C gave a self-cleavage of 1.72. With A36U U39C the self-cleavage was 1.03. A36G G79A showed a self-cleavage of 0.1. With A36G C76U the self-cleavage was 0.12. With A36C U103C the self-cleavage was 1.44. C34U A116G showed a self-cleavage of 0.54. With C35A A116G the self-cleavage was 0.83. U38A A52U showed a self-cleavage of 1.64. With U37C A140G the self-cleavage was 1.24. Variant A36U U127C has a self-cleavage of 0.93. Variant U37G U132C has a self-cleavage of 0.78. For A36G U38C, the self-cleavage was 1.19. U37G A89G gave a self-cleavage of 1.75. Work on U37A A51U yielded a self-cleavage of 1.05. With C35U U57A the self-cleavage was 0.59. With A36C A62G the self-cleavage was 2. C34U A94G gave a self-cleavage of 1.55. C35U U122A gave a self-cleavage of 1.26. Work on C35U U122C yielded a self-cleavage of 1.07. Work on A36G G123A yielded a self-cleavage of 1.46. A36G A54G gave a self-cleavage of 0.96. Variant U37A A135U has a self-cleavage of 2.22. In the case of C34A, the self-cleavage is reported as 1.12. For C34U, the self-cleavage was 1.35. Variant C34G has a self-cleavage of 1.98. Work on U37C C46U yielded a self-cleavage of 1.33. U37C U39A gave a self-cleavage of 1.55. In the case of A36G A98C, the self-cleavage is reported as 2.03. Variant A33U U100C has a self-cleavage of 1.84. For A36G C71U, the self-cleavage was 0.31. For A36U U139A, the self-cleavage was 2.31. In the case of A36G G83U, the self-cleavage is reported as 0.41. A36U G48A gave a self-cleavage of 1.22. In the case of A36G U127C, the self-cleavage is reported as 1.34. With A36G U127A the self-cleavage was 1.87. For U37C A51G, the self-cleavage was 1.49. U37C A51U gave a self-cleavage of 1.83. In the case of U37C U103G, the self-cleavage is reported as 0.02. Variant U37C U103A has a self-cleavage of 0.5. U37C U103C showed a self-cleavage of 0.32. Variant A36C U132C has a self-cleavage of 1.67. Variant A33U U87C has a self-cleavage of 1.74. With A33U U87A the self-cleavage was 2.04.
